Measured values published in patent US20040115622A1.

T1: HLA-DR molecule encoded by the allele DRB1*1301 (human)
T1 chain 1: not shown
T1 chain 2: not shown

T2: HLA-DR molecule encoded by the allele DRB3*0101 (human)
T2 chain 1: not shown
T2 chain 2: not shown

T3: HLA-DR molecule encoded by the allele DRB4*0101 (human)
T3 chain 1: not shown
T3 chain 2: not shown


Experiments:
[1] = target: HLA-DR molecule encoded by the allele DRB1*0701 (human); assay: competition ELISA vs biotinylated YKL
[2] = target: HLA-DR molecule encoded by the allele DRB1*0301 (human); assay: competition ELISA vs biotinylated MT 2-16
[3] = target: T1, HLA-DR molecule encoded by the allele …; assay: competition ELISA vs biotinylated B1 21-36
[4] = target: HLA-DR molecule encoded by the allele DRB1*1101 (human); assay: competition ELISA vs biotinylated HA 306-318
[5] = target: HLA-DR molecule encoded by the allele DRB5*0101 (human); assay: competition ELISA vs biotinylated HA 306-318
[6] = target: HLA-DR molecule encoded by the allele DRB1*1501 (human); assay: competition ELISA vs biotinylated A3 152-166
[7] = target: HLA-DR molecule encoded by the allele DRB1*0101 (human); assay: competition ELISA vs biotinylated HA 306-318
[8] = target: T2, HLA-DR molecule encoded by the allele …; assay: competition ELISA vs biotinylated Lol 191-210
[9] = target: T3, HLA-DR molecule encoded by the allele …; assay: competition ELISA vs biotinylated E2/E168
[10] = target: HLA-DR molecule encoded by the allele DRB1*0401 (human); assay: competition ELISA vs biotinylated HA 306-318

Binder	IC50 [1] [nM]	IC50 [2] [nM]	IC50 [3] [nM]	IC50 [4] [nM]	IC50 [5] [nM]	IC50 [6] [nM]	IC50 [7] [nM]	IC50 [8] [nM]	IC50 [9] [nM]	IC50 [10] [nM]
FHHVARELHPEYFKN (modifications not checked) [Nef13.6 peptide (positions 191-205 of the HIV-1 Nef protein, Bru strain), P03406 191-205]	2500	700	3000	550	8000					
GVRYPLTFGWCYKLVP (modifications not checked) [Nef9 peptide (positions 132-147 of the HIV-1 Nef protein, Bru strain), P03406 132-147]	5500				8000	1500	8.5			
REVLEWRFDSRLAFH (modifications not checked) [Nef13.1 peptide (positions 178-192 of the HIV-1 Nef protein, Bru strain), P03406 178-192]	350	125	867	8				28		
SSVVGWPTVRERMRR (modifications not checked) [Nef1.2 peptide (positions 8-22 of the HIV-1 Nef protein, Bru strain), P03406 8-22]			700	7500		200				
YKLVPVEPDKVEEAN (modifications not checked) [Nef10.4 peptide (positions 143-157 of the HIV-1 Nef protein, Bru strain), P03406 143-157]	2250	1470					9000		1730	2750
LEKHGAITSSNTAATNAACAWLEAQEEEEVGFPVT (modifications not checked) [Nef3 peptide (positions 37-71 of the HIV-1 Nef protein, Bru strain), P03406 37-71]	3000			2000			2500		8000	70
WRFDSRLAFHHVARE (modifications not checked) [Nef13.3 peptide (positions 183-197 of the HIV-1 Nef protein, Bru strain), P03406 183-197]	900	567	250	11	15			5000		
DPEREVLEWRFDSRLA (modifications not checked) [Nef12 peptide (positions 175-190 of the HIV-1 Nef protein, Bru strain), P03406 175-190]	700	3500		125		13		145	275	2500
DLSHFLKEKGGLEGL (modifications not checked) [Nef5 peptide (positions 86-100 of the HIV-1 Nef protein, Bru strain), P03406 86-100]					8000		6000			
VGWPTVRERMRRAEP (modifications not checked) [Nef1.3 peptide (positions 11-25 of the HIV-1 Nef protein, Bru strain), P03406 11-25]			700							
PTVRERMRRAEPAAD (modifications not checked) [Nef1.4 peptide (positions 14-28 of the HIV-1 Nef protein, Bru strain), P03406 14-28]			750	1250			1400			
EANKGENTSLLHPVSLHGMDDPEREVLEWRF (modifications not checked) [Nef11 peptide (positions 155-185 of the HIV-1 Nef protein, Bru strain), P03406 155-185]	3750			3000	3000	50	2000		450	
LIHSQRRQDILDLWI (modifications not checked) [Nef6 peptide (positions 100-114 of the HIV-1 Nef protein, Bru strain), P03406 100-114]				3000		1750			1750	
SRLAFHHVARELHPE (modifications not checked) [Nef13.4 peptide (positions 187-201 of the HIV-1 Nef protein, Bru strain), P03406 187-201]	225		350	6	300					
FGWCYKLVPVEPDKV (modifications not checked) [Nef10.2 peptide (positions 139-153 of the HIV-1 Nef protein, Bru strain), P03406 139-153]	120			250	900		85		605	250
LTFGWCYKLVPVEPDKVEEANKGENTSLLHPV (modifications not checked) [Nef10 peptide (positions 137-168 of the HIV-1 Nef protein, Bru strain), P03406 137-168]	65	175		45	250	1250	650	3500	55	150
